Test results from US20240369485A1, “FLUORESCENT SENSOR FOR MONITORING CALCIUM DYNAMICS” (priority 2021, published 2024).

What was measured:
HeLa cells = experiment: Epifluorescence imaging of mitochondria Ca^2+ dynamics; type: cell-based; settings: 100 μM histamine
Procedure: Cell culture and transfection. HeLa cells were cultured and maintained in DMEM supplemented with 10% FBS and high glucose (4.5 g/L) at 37° C. Individual plasmids were transfected into cells using Lipofectamine 3000 (Life Technologies), following the manufacturer's instructions. Seed cells onto sterilized 22 mm×40 mm glass microscope slides in 6 cm dishes until about 70% confluency, the day of transfection. The next day, 2 μg of plasmid were mixed with transfection reagent in the reduced serum media Opti-MEM for 4-6 h at 37° C. The media was then replaced with 3 mL of fresh DMEM and incubated at 37° C. for 48 h.
Epifluorescence imaging of mitochondria Ca^2+ dynamics. The coverslips with HeLa Cells transfected with mitochondria indicators were mounted on a bath chamber and placed on the stage of a Leica DM6100B inverted microscope with a Hamamatsu cooled EM-CCD camera and illuminated with a Till Polychrome V Xenon lamp. Cells were illuminated at 569 nm, in real-time. Fluorescence images of samples were recorded as the concentration of ER Ca^2+ was perturbed by perfusion of 100 μM histamine.

[1] = Calcium (Ca^2+) binding assay: fluorescence/absorbance titration of purified protein
Procedure: Calcium (Ca^2+) binding assay. 10 μM protein samples of mApple, EGFP, and mCherry variants were titrated with different concentrations of Ca^2+. Data were fitted with a 1:1 binding equation. Fluorescence intensities were collected using a Spectrofluorimeter (Photon Technology International, Inc.) and the absorbance values of Ca^2+-free and Ca^2+-loaded forms were determined using a Shimadzu UV-1601 spectrophotome.
Ca^2+ binding assay. Fluorescence measurements of mApple variants with increasing Ca^2+ concentrations were done in order to obtain the affinity of the sensor for Ca^2+ in vitro. Samples of 10 μM mApple variants with 5 μM EGTA were prepared in triplicate in 1 mL volumes in 10 mM Tris, pH 7.4. The samples were placed in quartz fluorescence cuvettes, and metal ion was titrated into each sample, in a stepwise manner, using 0.1 M and 1 M metal stock solutions. The fluorescence response of the indicator to increasing Ca^2+ concentrations was monitored using a fluorescence spectrophotometer (Photon Technology International, Canada) with the Felix32 fluorescence analysis software. The absorbance spectra before and after titration were obtained using a Shimadzu UV-1601 spectrophotometer.

B1: mApple A145E/K198D/R216E: mApple variant, SEQ ID NO: 25; starting point of mitochondria indicator (protein)
chain: EENNMAIIKEFMRFKVHMEGSVNGHEFEIEGEGEGRPYEAFQTAKLKVTKGGPLPFAWDILSPQFMYGSKVYIKHPADIPDYFKLSFPEGFRWERVMNFEDGGIIHVNQDSSLQDGVFIYKVKLRGTNFPSDGPVMQKKTMGWEESEERMYPEDGALKSEIKKRLKLKDGGHYAAEVKTTYKAKKPVQLPGAYIVDIDLDIVSHNEDYTIVEQYEEAEGRHSTGGMDELYK
Question: What does the source list for B1?
Answer: fluorescence intensity change of mitochondria targeted indicator (HeLa cells): no fluorescence change was observed; Fmax/Fmin ([1]; EGFP and mApple variants): 3.80; Aholo/Aapo ([1]; absorbance at 569): 1.60 (569); Kd ([1]; in vitro, purified protein, read-out: Kd for Ca^2+ binding): 290 ± 20 µM
